Measured values taken from article PMC9680610.

How the values were obtained:
Assay in all cases: mass photometry
[1] = biological target: SARS-CoV-2 spike, wild-type (Wuhan-hu-1 strain), HexaPro stabilised (K986P, V987P, F817P, A892P, A89 (SARS-CoV-2 (Wuhan-hu-1 strain)) (UniProt P0DTC2))
[2] = biological target: SARS-CoV-2 spike, Omicron (B.1.1.529 strain), 2P stabilised (SARS-CoV-2 (Omicron B.1.1.529 strain)) (UniProt P0DTC2)
[3] = biological target: SARS-CoV-2 spike, Omicron (B.1.1.529 strain), HexaPro stabilised (SARS-CoV-2 (Omicron B.1.1.529 strain)) (UniProt P0DTC2)
[4] = biological target: SARS-CoV-2 spike, wild-type (Wuhan-hu-1 strain), 2P stabilised (K986P, V987P), soluble recombinant (SARS-CoV-2 (Wuhan-hu-1 strain)) (UniProt P0DTC2)

Substance | percent of spike counts that are trimer [1] [%] | stoichiometry N [2] | stoichiometry N [3] | percent of spike with one ACE2 bound [4] [%] | percent of spike with two ACE2 bound [4] [%] | stoichiometry N [4] | percent of spike with two ACE2 bound [1] [%] | stoichiometry N [1]
SARS-CoV-2 spike, wild-type (Wuhan-hu-1 strain), HexaPro stabilised (K986P, V987P, F817P, A892P, A89 (from UniProt P0DTC2 14-1208) (natural protein) | 90 | – | – | – | – | – | – | –
angiotensin-converting enzyme-2 (ACE2) with the neck domain (from UniProt Q9BYF1 18-740) (receptor) | – | < 3 | < 3 | 42 | 8 | < 3 | 7 | < 3
angiotensin-converting enzyme-2 (ACE2) without the neck domain (from UniProt Q9BYF1 18-740) (receptor) | – | < 3 | < 3 | – | – | – | – | –
